In US6676941B2 (Board of Regents, The University of Texas System, priority 1999, dated 2004):

Tested on: Bend3 mouse endothelial cells; ABAE; HUVEC
Assay: Direct binding of biotinylated 6-His endostatin to endothelial cells
Assay type: cell-based, bovine, human
Settings: streptavidin-peroxidase detection
Description: Binding was detected using streptavidin-peroxidase in conjunction with O-phenylenediamine (OPD) and the absorbance read at 490 nm.

B1: endostatin (protein, UniProt P39060 1572-1754, looked up)
Endostatin: HSHRDFQPVLHLVALNSPLSGGMRGIRGADFQCFQQARAVGLAGTFRAFLSSRLQDLYSIVRRADRAAVPIVNLKDELLFPSWEALFSGSEGPLKPGARIFSFDGKDVLRHPTWPQKSVWHGSDPNGRRLTESYCETWRTEAPSATGQASSLLGGRLLGQSAASCHHAYIVLCIENSFMTASK
modifications: Endostatin
Binding to endothelial cells in vitro: bound in a saturable fashion
